We go through 167 variants from the Human Domainome abundance scans (Beltran et al. 2025).

± gives the uncertainty stated by the source.

B1: Tudor domain-containing protein 3, residues 554 to 611; numbered along this chain, Q9H7E2 (parent)
chain: KMWKPGDECFALYWEDNKFYRAEVEALHSSGMTAVVKFIDYGNYEEVLLSNIKPIQTE

In this data set the parent is B1. Briefly: abundance fitness (aPCA) (normalised: wild type 0, dead -1); higher = more abundant; growth selection in yeast, the domain comes from the species named. The following applies: Homo sapiens.
S29I: the abundance fitness is -0.05 ± 0.097.

Y13Q: the abundance fitness was -0.292 ± 0.092.

With Y13R, the abundance fitness is 0.069 ± 0.055.

Y13K: the abundance fitness is -0.028 ± 0.093.

As to Y13M, the abundance fitness is -0.287 ± 0.1.

Y13W: the abundance fitness was -0.06 ± 0.075.

As to Y13D, the abundance fitness is -0.345 ± 0.15.

S30A: the abundance fitness was -0.192 ± 0.061.

In the case of S30F, the abundance fitness is -0.435 ± 0.097.

For the variant S30G, the abundance fitness was -0.132 ± 0.052.

S30D: the abundance fitness is -0.179 ± 0.074.

With S30M, the abundance fitness was -0.282 ± 0.098.

For the variant W14Q, the abundance fitness was found to be 0.169 ± 0.099.

Take W14S: the abundance fitness came out at 0.134 ± 0.075.

W14H: the abundance fitness came out at 0.043 ± 0.15.

On to W14E, for which the abundance fitness was 0.011 ± 0.077.

On to W14D, for which the abundance fitness amounted to 0.129 ± 0.1.

For W14A, the abundance fitness was 0.173 ± 0.065.

Regarding W14T, the abundance fitness is 0.016 ± 0.075.

For the variant E45V, the abundance fitness is -0.392 ± 0.072.

E45T: the abundance fitness was -0.398 ± 0.098.

With E45A, the abundance fitness was -0.041 ± 0.066.

For E45G, the abundance fitness is -0.101 ± 0.054.

Take E45L: the abundance fitness was -0.53 ± 0.08.

For E45I, the abundance fitness was -0.975 ± 0.21.

For Y44N, the abundance fitness was -0.111 ± 0.11.

On to Y44I, for which the abundance fitness is -0.015 ± 0.13.

Y44P: the abundance fitness was -0.473 ± 0.096.

For the variant Y44D, the abundance fitness is -0.468 ± 0.089.

With Y44V, the abundance fitness is 0.103 ± 0.07.

Take Y44S: the abundance fitness was found to be 0.135 ± 0.062.

Turning to Y44G, the abundance fitness was -0.767 ± 0.062.

Turning to M2I, the abundance fitness was -0.201 ± 0.12.

Turning to M2H, the abundance fitness is -0.13 ± 0.17.

In the case of M2C, the abundance fitness is -0.286 ± 0.14.

In the case of M2Y, the abundance fitness is -0.15 ± 0.15.

Regarding M2E, the abundance fitness is -0.19 ± 0.083.

Regarding M2L, the abundance fitness was -0.098 ± 0.075.

Consider M2T, for which the abundance fitness is -0.23 ± 0.091.

I39Y: the abundance fitness was -0.006 ± 0.15.

Regarding I39M, the abundance fitness was -0.093 ± 0.078.

Regarding I39W, the abundance fitness is -0.361 ± 0.082.

Regarding I39L, the abundance fitness was -0.05 ± 0.066.

As for I39S, the abundance fitness was -0.111 ± 0.069.

As to I52L, the abundance fitness is 0.032 ± 0.067.

With I52T, the abundance fitness was -0.686 ± 0.14.

On to I52D, for which the abundance fitness is -0.857 ± 0.13.

With I52G, the abundance fitness is -0.895 ± 0.064.

Consider I52H, for which the abundance fitness was -1.04 ± 0.34.

Take I52E: the abundance fitness was -0.911 ± 0.12.

Consider I52F, for which the abundance fitness is -0.906 ± 0.25.

Regarding I52W, the abundance fitness was -0.81 ± 0.11.

S50W: the abundance fitness was -0.585 ± 0.08.

In the case of S50F, the abundance fitness was -0.605 ± 0.093.

On to S50M, for which the abundance fitness was -0.255 ± 0.09.

As for S50C, the abundance fitness was -0.08 ± 0.076.

For the variant S50K, the abundance fitness is 0.03 ± 0.08.

S50H: the abundance fitness amounted to 0.048 ± 0.11.

S50T: the abundance fitness was 0.059 ± 0.086.

With A26C, the abundance fitness is -0.063 ± 0.15.

As to A26K, the abundance fitness is 0.158 ± 0.17.

Consider A26G, for which the abundance fitness is -0.068 ± 0.086.

Regarding A26Y, the abundance fitness was -0.062 ± 0.21.

Turning to A26I, the abundance fitness was -0.16 ± 0.16.

As to A26R, the abundance fitness was 0.049 ± 0.083.

Consider A26N, for which the abundance fitness was -0.079 ± 0.16.

For the variant A26P, the abundance fitness is -0.897 ± 0.2.

Take P54A: the abundance fitness was -0.162 ± 0.07.

On to P54Q, for which the abundance fitness is -0.188 ± 0.097.

As for P54V, the abundance fitness was -0.298 ± 0.077.

P54N: the abundance fitness was -0.41 ± 0.13.

P54F: the abundance fitness was -0.701 ± 0.15.

For P54K, the abundance fitness was -0.138 ± 0.11.

With E46D, the abundance fitness was -0.149 ± 0.087.

Consider E46R, for which the abundance fitness was -0.138 ± 0.075.

On to E46S, for which the abundance fitness is -0.029 ± 0.076.

Take N17V: the abundance fitness is -0.55 ± 0.074.

As for N17H, the abundance fitness is -0.29 ± 0.15.

In the case of N17D, the abundance fitness came out at 0.034 ± 0.1.

On to N17E, for which the abundance fitness is -0.021 ± 0.08.

M32L: the abundance fitness was -0.045 ± 0.057.

As for M32I, the abundance fitness is -0.24 ± 0.088.

Take M32K: the abundance fitness is -0.165 ± 0.091.

As for M32F, the abundance fitness was -0.005 ± 0.081.

In the case of M32R, the abundance fitness is -0.009 ± 0.055.

Take M32Q: the abundance fitness is 0.046 ± 0.078.

Consider M32G, for which the abundance fitness is -0.031 ± 0.055.

Take M32N: the abundance fitness was found to be 0.003 ± 0.091.

On to G31E, for which the abundance fitness is -0.092 ± 0.093.

G31V: the abundance fitness was -0.45 ± 0.067.

As to G31A, the abundance fitness came to 0.015 ± 0.076.

Turning to G31H, the abundance fitness is -0.099 ± 0.088.

For the variant G31W, the abundance fitness was -0.658 ± 0.099.

Turning to G31N, the abundance fitness is -0.057 ± 0.14.

Turning to L12F, the abundance fitness was -0.493 ± 0.15.

For the variant L12Y, the abundance fitness is -0.754 ± 0.2.

As for L12R, the abundance fitness is -0.124 ± 0.059.

For the variant L12D, the abundance fitness is -0.891 ± 0.19.

As for L12K, the abundance fitness is 0.01 ± 0.12.

For L12C, the abundance fitness is -0.236 ± 0.13.

As to E58R, the abundance fitness is -0.111 ± 0.12.

Take E58N: the abundance fitness was 0.049 ± 0.29.

Consider E58Y, for which the abundance fitness is -0.157 ± 0.25.

For Y41N, the abundance fitness turned out to be 0.035 ± 0.1.

For the variant Y41G, the abundance fitness was determined as 0.07 ± 0.064.

In the case of Y41S, the abundance fitness came out at 0.118 ± 0.061.

On to Y41I, for which the abundance fitness was 0.076 ± 0.11.

Turning to Y41T, the abundance fitness stood at 0.132 ± 0.085.

With Y41H, the abundance fitness worked out at 0.028 ± 0.099.

Consider Y41L, for which the abundance fitness was -0.045 ± 0.064.

For the variant Y41A, the abundance fitness was found to be 0.134 ± 0.062.

As for I55E, the abundance fitness is -0.558 ± 0.099.

With I55N, the abundance fitness was -0.265 ± 0.12.

In the case of I55W, the abundance fitness is -0.372 ± 0.078.

Take I55Y: the abundance fitness was -0.132 ± 0.11.

In the case of I55M, the abundance fitness was -0.096 ± 0.095.

In the case of A34Y, the abundance fitness is -0.897 ± 0.29.

Consider A34C, for which the abundance fitness was -0.072 ± 0.091.

For A34W, the abundance fitness was -0.882 ± 0.12.

As for A34H, the abundance fitness was -0.861 ± 0.23.

For A34D, the abundance fitness is -0.931 ± 0.13.

With A34R, the abundance fitness is -0.85 ± 0.088.

Turning to V47T, the abundance fitness is -0.966 ± 0.17.

As for V47A, the abundance fitness is -0.815 ± 0.097.

Turning to V47L, the abundance fitness is -0.433 ± 0.063.

Take V47M: the abundance fitness was -0.821 ± 0.093.

For the variant V47S, the abundance fitness was -0.926 ± 0.1.

Take V24D: the abundance fitness is -1.03 ± 0.28.

Regarding V24W, the abundance fitness was -0.811 ± 0.093.

On to V24N, for which the abundance fitness was -0.825 ± 0.15.

As to V24P, the abundance fitness was -0.906 ± 0.11.

Consider P5D, for which the abundance fitness was -0.763 ± 0.15.

On to P5Y, for which the abundance fitness is -0.447 ± 0.14.

Take P5E: the abundance fitness was -0.187 ± 0.11.

Consider P5F, for which the abundance fitness is -0.529 ± 0.15.

Consider T33L, for which the abundance fitness was -0.331 ± 0.065.

In the case of T33A, the abundance fitness is -0.121 ± 0.075.

As for T33I, the abundance fitness was -0.276 ± 0.094.

On to T33D, for which the abundance fitness is -0.877 ± 0.15.

T33W: the abundance fitness was -0.321 ± 0.071.

In the case of T33V, the abundance fitness is -0.232 ± 0.078.

Take N51H: the abundance fitness is 0.055 ± 0.084.

Take N51G: the abundance fitness was -0.462 ± 0.055.

Turning to N51Q, the abundance fitness was -0.036 ± 0.09.

For N51P, the abundance fitness was -1.02 ± 0.14.

As to D7K, the abundance fitness is -0.887 ± 0.12.

On to D7S, for which the abundance fitness is -0.608 ± 0.078.

Consider D7A, for which the abundance fitness is -0.396 ± 0.068.

Turning to D7N, the abundance fitness was -0.631 ± 0.093.

Regarding D7T, the abundance fitness was -0.502 ± 0.09.

Take D7V: the abundance fitness is -0.789 ± 0.079.

With T57D, the abundance fitness is 0.083 ± 0.074.

T57K: the abundance fitness was -0.047 ± 0.16.

As to T57N, the abundance fitness was 0.019 ± 0.11.

Regarding T57S, the abundance fitness was found to be 0.021 ± 0.063.

With T57C, the abundance fitness is -0.005 ± 0.085.

For the variant C9T, the abundance fitness was -1.04 ± 0.16.

C9N: the abundance fitness was -0.82 ± 0.27.

As for C9F, the abundance fitness is -0.915 ± 0.16.

In the case of C9I, the abundance fitness is -0.975 ± 0.3.

On to C9A, for which the abundance fitness is -0.765 ± 0.1.

For G6K, the abundance fitness is -0.416 ± 0.1.

As for G6A, the abundance fitness is -0.785 ± 0.086.

As for G6H, the abundance fitness is -0.502 ± 0.12.

G6N: the abundance fitness is -0.798 ± 0.12.

Consider G6R, for which the abundance fitness is -0.431 ± 0.058.

As to G6C, the abundance fitness is -0.86 ± 0.093.
